Where no end group is shown, it is not given here.
B1: FITC-MDM2 (peptide)
chain: DYSQPSTSSSIIY
modifications: also: FITC label, position not given here
B2: FITC-SQSTM1 (peptide)
chain: DDDWTHLSSK
modifications: also: FITC label, position not given here

How the values were obtained:
Experiment in all cases: fluorescence polarisation; saturation binding: dilution series of the protein domain added to 10 nM FITC-labelled peptide; 50 mM sodium phosphate pH 7.4, 0.05% Tween (protein dialysed in 50 mM sodium phosphate with 1 mM DTT; CASK kinase domain with 100 mM NaCl in addition); quadratic fit; technical triplets
Conditions in all cases: both partners purified
USP7 MATH/TRAF domain = biological target: T1, USP7 MATH/TRAF domain (human)
T1 construct: USP7, human, MATH/TRAF domain; source: E. coli BL21 (DE3) Gold, purified (glutathione or Ni2+ beads)

GABARAPL1 ATG8 domain = biological target: T2, GABARAPL1 ATG8 domain (human)
T2 construct: GABARAPL1, human, ATG8 domain; source: E. coli BL21 (DE3) Gold, purified (glutathione or Ni2+ beads)

MAP1LC3A ATG8 domain = biological target: T3, MAP1LC3A ATG8 domain (human)
T3 construct: MAP1LC3A, human, ATG8 domain; source: E. coli BL21 (DE3) Gold, purified (glutathione or Ni2+ beads)

MAP1LC3B ATG8 domain = MAP1LC3B ATG8 domain (human, UniProt Q9GZQ8 1-120)

Row | Binder | Kd (USP7 MATH/TRAF domain) [nM] | Kd (GABARAPL1 ATG8 domain) [nM] | Kd (MAP1LC3A ATG8 domain) [nM] | Kd (MAP1LC3B ATG8 domain) [nM]
1 | B1 | 500 |  |  | 
2 | B2 |  | 3700 | 680 | 1400

Source: article PMC11369174 (Molecular Systems Biology, 2024)
